Fold diff data for one molecule are collected here from patent US20220332804A1 (CSL INNOVATION, published 2022).

Common to all, as to test: SPR, KD relative to WT C2;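 note: biacore SPR at 37 °C, anti-C2 mAbs captured on anti-human IgG chips with alanine or serine point mutants of C2 as analyte, KD from 1:1 fit compared with wild-type C2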
Background: SPR reads the build-up and loss of mass on a sensor chip optically.

Test [1] concerns the target T1, human C2 D419A (human, UniProt P06681 21-752).
T1 sequence: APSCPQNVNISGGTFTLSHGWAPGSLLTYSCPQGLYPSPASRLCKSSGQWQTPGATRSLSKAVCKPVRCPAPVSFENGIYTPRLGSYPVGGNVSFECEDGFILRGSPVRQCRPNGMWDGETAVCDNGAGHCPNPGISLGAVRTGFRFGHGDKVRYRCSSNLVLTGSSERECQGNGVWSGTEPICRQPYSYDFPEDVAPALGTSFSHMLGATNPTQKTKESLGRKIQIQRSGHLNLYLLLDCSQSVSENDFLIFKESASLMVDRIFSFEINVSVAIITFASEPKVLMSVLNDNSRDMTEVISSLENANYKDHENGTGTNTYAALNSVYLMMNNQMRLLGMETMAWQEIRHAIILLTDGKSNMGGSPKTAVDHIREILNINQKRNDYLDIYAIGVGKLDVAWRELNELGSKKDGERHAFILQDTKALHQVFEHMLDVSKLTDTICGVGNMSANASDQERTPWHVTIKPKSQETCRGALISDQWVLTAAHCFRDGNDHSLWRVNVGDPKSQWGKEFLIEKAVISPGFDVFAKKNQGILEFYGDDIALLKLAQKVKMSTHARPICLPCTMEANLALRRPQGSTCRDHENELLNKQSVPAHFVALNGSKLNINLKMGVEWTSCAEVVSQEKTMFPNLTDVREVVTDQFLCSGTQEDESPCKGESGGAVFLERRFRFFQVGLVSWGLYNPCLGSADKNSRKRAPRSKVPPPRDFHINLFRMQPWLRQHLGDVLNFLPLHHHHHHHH

For test [2], the target named is T2, human C2 V455A (human, UniProt P06681 21-752).
T2 sequence: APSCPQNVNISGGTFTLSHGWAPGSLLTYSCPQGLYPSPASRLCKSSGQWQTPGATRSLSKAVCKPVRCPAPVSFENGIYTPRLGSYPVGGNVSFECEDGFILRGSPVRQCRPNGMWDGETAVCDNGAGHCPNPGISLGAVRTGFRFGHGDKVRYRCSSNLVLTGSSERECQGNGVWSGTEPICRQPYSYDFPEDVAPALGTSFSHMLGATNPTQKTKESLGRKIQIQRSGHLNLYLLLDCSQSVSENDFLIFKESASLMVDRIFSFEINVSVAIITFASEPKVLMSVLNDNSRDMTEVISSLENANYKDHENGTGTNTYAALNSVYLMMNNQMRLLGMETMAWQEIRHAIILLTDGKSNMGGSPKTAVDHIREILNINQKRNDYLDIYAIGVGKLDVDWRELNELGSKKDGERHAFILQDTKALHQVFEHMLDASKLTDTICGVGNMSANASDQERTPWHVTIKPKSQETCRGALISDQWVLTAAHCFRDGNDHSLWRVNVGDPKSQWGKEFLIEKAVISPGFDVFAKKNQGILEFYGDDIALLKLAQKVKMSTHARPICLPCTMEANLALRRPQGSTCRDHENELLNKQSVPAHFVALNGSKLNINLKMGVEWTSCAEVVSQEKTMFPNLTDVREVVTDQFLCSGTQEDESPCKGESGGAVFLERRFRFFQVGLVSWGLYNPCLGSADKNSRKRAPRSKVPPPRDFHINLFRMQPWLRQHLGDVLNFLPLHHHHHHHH

For test [3], the target named is T3, human C2 G466A (human, UniProt P06681 21-752).
T3 sequence: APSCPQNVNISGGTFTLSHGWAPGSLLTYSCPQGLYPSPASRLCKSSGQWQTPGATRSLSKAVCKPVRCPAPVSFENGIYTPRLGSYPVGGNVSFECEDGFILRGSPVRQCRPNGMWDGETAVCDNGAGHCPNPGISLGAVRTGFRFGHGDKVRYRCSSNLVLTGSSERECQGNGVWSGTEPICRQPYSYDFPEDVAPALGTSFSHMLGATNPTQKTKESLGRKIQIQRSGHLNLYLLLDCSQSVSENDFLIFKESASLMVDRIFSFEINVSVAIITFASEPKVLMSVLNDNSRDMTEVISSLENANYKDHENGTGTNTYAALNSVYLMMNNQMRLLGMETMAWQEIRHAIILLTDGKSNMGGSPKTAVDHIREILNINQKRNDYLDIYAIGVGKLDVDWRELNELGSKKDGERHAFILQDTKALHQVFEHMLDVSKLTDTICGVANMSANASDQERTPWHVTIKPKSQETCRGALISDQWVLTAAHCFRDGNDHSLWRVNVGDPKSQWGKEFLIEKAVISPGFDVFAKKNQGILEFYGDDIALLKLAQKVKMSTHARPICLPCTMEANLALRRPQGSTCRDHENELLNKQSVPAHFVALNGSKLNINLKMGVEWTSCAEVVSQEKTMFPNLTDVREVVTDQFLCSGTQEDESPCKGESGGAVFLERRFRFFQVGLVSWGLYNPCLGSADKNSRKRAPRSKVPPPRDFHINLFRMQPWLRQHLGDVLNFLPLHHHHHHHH

Test [4] concerns the target T4, human C2 F270A (human, UniProt P06681 21-752).
T4 sequence: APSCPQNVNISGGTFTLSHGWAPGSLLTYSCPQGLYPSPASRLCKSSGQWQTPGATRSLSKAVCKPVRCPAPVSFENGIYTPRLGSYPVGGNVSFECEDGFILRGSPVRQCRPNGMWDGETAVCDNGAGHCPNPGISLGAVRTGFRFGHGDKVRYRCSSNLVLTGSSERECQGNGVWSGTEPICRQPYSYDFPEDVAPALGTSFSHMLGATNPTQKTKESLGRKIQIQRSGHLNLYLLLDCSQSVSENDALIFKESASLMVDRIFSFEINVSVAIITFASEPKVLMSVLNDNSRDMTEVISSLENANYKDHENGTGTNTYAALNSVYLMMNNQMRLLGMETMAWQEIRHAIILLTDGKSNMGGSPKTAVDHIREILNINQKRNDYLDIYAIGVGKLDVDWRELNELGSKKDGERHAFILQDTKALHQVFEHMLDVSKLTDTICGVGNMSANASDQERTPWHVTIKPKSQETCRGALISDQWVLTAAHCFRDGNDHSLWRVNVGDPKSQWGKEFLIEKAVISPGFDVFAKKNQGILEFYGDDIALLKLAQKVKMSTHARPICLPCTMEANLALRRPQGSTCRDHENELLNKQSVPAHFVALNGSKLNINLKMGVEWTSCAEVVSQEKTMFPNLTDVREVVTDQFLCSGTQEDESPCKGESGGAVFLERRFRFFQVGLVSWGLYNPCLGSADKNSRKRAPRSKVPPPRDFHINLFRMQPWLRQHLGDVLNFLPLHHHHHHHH

B1: RF16-242 (antibody, human IgG4 S228P, lambda, V domains shown)
VH: EVQLLQSGAEVKKPGESLKISCKGSGYSFTSYWIGWVRQMPGKGLEWMGIIYPGDSDTRYSPSFQGQVTISADKSISTAYLQWSSLKASDTAMYYCARRGHYGDYFDYWGQGTLVTVSS
VL: SYELTQPPSVSVSPGQTARITCSGDALPKKYAYWYHQKSGQAPVLVIYEDRRRPSEIPERFSGSSSGTMATLTITGAQVEDEGVYFCYSRDRAGNQRVFGGGTQLTVLG
notes: pH-dependent anti-C2 antibody from a phage display library
B1: the Fold diff in test [1] amounted to 2 fold; in test [2], 1 fold; in test [3] it was 4 fold; in test [4], 15 fold.
